# Reference: patent publication US10919943B2, “Mutant proteins enabling agrochemical control of plant gene expression” (The Regents of the University of California, priority 2016, dated 2021)
# T1: PYR1 (Arabidopsis thaliana, UniProt O49686)
# T1 construct: expressed in transfected cells; host or cells: S. cerevisiae strain Y190
# T1 sequence (O49686 1-191): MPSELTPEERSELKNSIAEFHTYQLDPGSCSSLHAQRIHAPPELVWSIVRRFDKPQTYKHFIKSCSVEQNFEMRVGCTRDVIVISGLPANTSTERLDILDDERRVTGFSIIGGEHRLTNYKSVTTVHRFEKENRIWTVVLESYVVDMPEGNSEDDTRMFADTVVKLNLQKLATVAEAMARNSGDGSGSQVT
# Target: T1, PYR1
# Assay: Yeast two hybrid of pACT-HAB1 site saturation mutants with pBD-PYR1 on 10 μM ABA, β-galactosidase staining
# Format: cell-based
# Set-up: key: x: Mutations in HAB1 that disrupt HAB1 interaction with PYR1
# Settings: S. cerevisiae Y190, 10 μM ABA; dead = lack of detectable staining in comparison to wild type control
# Excerpt: To systematically define mutations in HAB1 that disrupt its binding to PYR1, we used site saturation mutagenesis to create a collection all possible single amino acid substitutions in 20 residues lining the PYR1 binding interface, and then assayed the ability of each mutant to bind PYR1 using the yeast two hybrid assay described above. We targeted the following residues for mutagenesis: R199, 5200, E201, E203, H245, G246, G247, S322, E323, T324, K381, I383, Q384, W385, Q386, R389, F391, G392, V393, and Y404. To create the collection of mutations, mutagenic “NNK” site directed mutagenesis primers were synthesized for each of the 20 positions and the primers used in QuickChange site-directed mutagenesis reactions using a previously described pACT-HAB1 template (Park et al., 2009). We note that this clone uses a HAB1 cDNA lacking its three N-terminal amino acids. The reaction products were digested with DpnI, and transformed into competent Escherichia coli DH5α cells and plasmid DNA for 96 colonies per site was isolated using Bioneer AccuPrep® Plasmid Mini Extraction Kit (Alameda, Calif.) and sequenced to identify mutants. This process identified most of the 19 desired mutations per target site; the remaining mutations were constructed directly using specific mutagenic primers. To interrogate the effects of the mutations on PYR1-HAB1 interactions, the mutant clones were individually transformed into S. cerevisiae strain Y190 containing pBD-PYR1 (Park et al., 2009). Yeast transformants were selected for the presence of plasmids on selective SD (-Leu,-Trp) plates and then spotted onto SD (-Leu,-Trp) agar plates supplemented with 10 μM ABA. After incubating the test plates at 30° C. for two days, the colonies were lysed with chloroform and stained to reveal […] expression levels. “Dead” mutants were defined by lack of detectable staining in comparison to a wild type pBD-PYR1/pACT-HAB1 control. This screening effort defined 163 mutations that disrupt the ABA-induced PYR1/HAB1 interaction (Table 2).
row,Molecule,Mutations in HAB1 that disrupt HAB1 interaction with PYR1
1,"E323L: HAB1 mutant (protein, UniProt Q9CAJ0 23-511, looked up, variant E323L) Protein phosphatase 2C 16: SPVEITQLKNVTDAADLLSDSENQSFCNGGTECTMEDVSELEEVGEQDLLKTLSDTRSGSSNVFDEDDVLSVVEDNSAVISEGLLVVDAGSELSLSNTAMEIDNGRVLATAIIVGESSIEQVPTAEVLIAGVNQDTNTSEVVIRLPDENSNHLVKGRSVYELDCIPLWGTVSIQGNRSEMEDAFAVSPHFLKLPIKMLMGDHEGMSPSLTHLTGHFFGVYDGHGGHKVADYCRDRLHFALAEEIERIKDELCKRNTGEGRQVQWDKVFTSCFLTVDGEIEGKIGRAVVGSSDKVLEAVASLTVGSTAVVALVCSSHIVVSNCGDSRAVLFRGKEAMPLSVDHKPDREDEYARIENAGGKVIQWQGARVFGVLAMSRSIGDRYLKPYVIPEPEVTFMPRSREDECLILASDGLWDVMNNQEVCEIARRRILMWHKKNGAPPLAERGKGIDPACQAAADYLSMLALQKGSKDNISIIVIDLKAQRKFKTRT",x
2,"I383Q: HAB1 mutant (protein, UniProt Q9CAJ0 23-511, looked up, variant I383Q) Protein phosphatase 2C 16: SPVEITQLKNVTDAADLLSDSENQSFCNGGTECTMEDVSELEEVGEQDLLKTLSDTRSGSSNVFDEDDVLSVVEDNSAVISEGLLVVDAGSELSLSNTAMEIDNGRVLATAIIVGESSIEQVPTAEVLIAGVNQDTNTSEVVIRLPDENSNHLVKGRSVYELDCIPLWGTVSIQGNRSEMEDAFAVSPHFLKLPIKMLMGDHEGMSPSLTHLTGHFFGVYDGHGGHKVADYCRDRLHFALAEEIERIKDELCKRNTGEGRQVQWDKVFTSCFLTVDGEIEGKIGRAVVGSSDKVLEAVASETVGSTAVVALVCSSHIVVSNCGDSRAVLFRGKEAMPLSVDHKPDREDEYARIENAGGKVQQWQGARVFGVLAMSRSIGDRYLKPYVIPEPEVTFMPRSREDECLILASDGLWDVMNNQEVCEIARRRILMWHKKNGAPPLAERGKGIDPACQAAADYLSMLALQKGSKDNISIIVIDLKAQRKFKTRT",x
3,"I383W: HAB1 mutant (protein, UniProt Q9CAJ0 23-511, looked up, variant I383W) Protein phosphatase 2C 16: SPVEITQLKNVTDAADLLSDSENQSFCNGGTECTMEDVSELEEVGEQDLLKTLSDTRSGSSNVFDEDDVLSVVEDNSAVISEGLLVVDAGSELSLSNTAMEIDNGRVLATAIIVGESSIEQVPTAEVLIAGVNQDTNTSEVVIRLPDENSNHLVKGRSVYELDCIPLWGTVSIQGNRSEMEDAFAVSPHFLKLPIKMLMGDHEGMSPSLTHLTGHFFGVYDGHGGHKVADYCRDRLHFALAEEIERIKDELCKRNTGEGRQVQWDKVFTSCFLTVDGEIEGKIGRAVVGSSDKVLEAVASETVGSTAVVALVCSSHIVVSNCGDSRAVLFRGKEAMPLSVDHKPDREDEYARIENAGGKVWQWQGARVFGVLAMSRSIGDRYLKPYVIPEPEVTFMPRSREDECLILASDGLWDVMNNQEVCEIARRRILMWHKKNGAPPLAERGKGIDPACQAAADYLSMLALQKGSKDNISIIVIDLKAQRKFKTRT",x
4,"K381W: HAB1 mutant (protein, UniProt Q9CAJ0 23-511, looked up, variant K381W) Protein phosphatase 2C 16: SPVEITQLKNVTDAADLLSDSENQSFCNGGTECTMEDVSELEEVGEQDLLKTLSDTRSGSSNVFDEDDVLSVVEDNSAVISEGLLVVDAGSELSLSNTAMEIDNGRVLATAIIVGESSIEQVPTAEVLIAGVNQDTNTSEVVIRLPDENSNHLVKGRSVYELDCIPLWGTVSIQGNRSEMEDAFAVSPHFLKLPIKMLMGDHEGMSPSLTHLTGHFFGVYDGHGGHKVADYCRDRLHFALAEEIERIKDELCKRNTGEGRQVQWDKVFTSCFLTVDGEIEGKIGRAVVGSSDKVLEAVASETVGSTAVVALVCSSHIVVSNCGDSRAVLFRGKEAMPLSVDHKPDREDEYARIENAGGWVIQWQGARVFGVLAMSRSIGDRYLKPYVIPEPEVTFMPRSREDECLILASDGLWDVMNNQEVCEIARRRILMWHKKNGAPPLAERGKGIDPACQAAADYLSMLALQKGSKDNISIIVIDLKAQRKFKTRT",x

# Other lines, results leading:
row,Mutations in HAB1 that disrupt HAB1 interaction with PYR1,Molecule
1,x,"I383N: HAB1 mutant (protein, UniProt Q9CAJ0 23-511, looked up, variant I383N) Protein phosphatase 2C 16: SPVEITQLKNVTDAADLLSDSENQSFCNGGTECTMEDVSELEEVGEQDLLKTLSDTRSGSSNVFDEDDVLSVVEDNSAVISEGLLVVDAGSELSLSNTAMEIDNGRVLATAIIVGESSIEQVPTAEVLIAGVNQDTNTSEVVIRLPDENSNHLVKGRSVYELDCIPLWGTVSIQGNRSEMEDAFAVSPHFLKLPIKMLMGDHEGMSPSLTHLTGHFFGVYDGHGGHKVADYCRDRLHFALAEEIERIKDELCKRNTGEGRQVQWDKVFTSCFLTVDGEIEGKIGRAVVGSSDKVLEAVASETVGSTAVVALVCSSHIVVSNCGDSRAVLFRGKEAMPLSVDHKPDREDEYARIENAGGKVNQWQGARVFGVLAMSRSIGDRYLKPYVIPEPEVTFMPRSREDECLILASDGLWDVMNNQEVCEIARRRILMWHKKNGAPPLAERGKGIDPACQAAADYLSMLALQKGSKDNISIIVIDLKAQRKFKTRT"
2,x,"I383P: HAB1 mutant (protein, UniProt Q9CAJ0 23-511, looked up, variant I383P) Protein phosphatase 2C 16: SPVEITQLKNVTDAADLLSDSENQSFCNGGTECTMEDVSELEEVGEQDLLKTLSDTRSGSSNVFDEDDVLSVVEDNSAVISEGLLVVDAGSELSLSNTAMEIDNGRVLATAIIVGESSIEQVPTAEVLIAGVNQDTNTSEVVIRLPDENSNHLVKGRSVYELDCIPLWGTVSIQGNRSEMEDAFAVSPHFLKLPIKMLMGDHEGMSPSLTHLTGHFFGVYDGHGGHKVADYCRDRLHFALAEEIERIKDELCKRNTGEGRQVQWDKVFTSCFLTVDGEIEGKIGRAVVGSSDKVLEAVASETVGSTAVVALVCSSHIVVSNCGDSRAVLFRGKEAMPLSVDHKPDREDEYARIENAGGKVPQWQGARVFGVLAMSRSIGDRYLKPYVIPEPEVTFMPRSREDECLILASDGLWDVMNNQEVCEIARRRILMWHKKNGAPPLAERGKGIDPACQAAADYLSMLALQKGSKDNISIIVIDLKAQRKFKTRT"
3,x,"I383T: HAB1 mutant (protein, UniProt Q9CAJ0 23-511, looked up, variant I383T) Protein phosphatase 2C 16: SPVEITQLKNVTDAADLLSDSENQSFCNGGTECTMEDVSELEEVGEQDLLKTLSDTRSGSSNVFDEDDVLSVVEDNSAVISEGLLVVDAGSELSLSNTAMEIDNGRVLATAIIVGESSIEQVPTAEVLIAGVNQDTNTSEVVIRLPDENSNHLVKGRSVYELDCIPLWGTVSIQGNRSEMEDAFAVSPHFLKLPIKMLMGDHEGMSPSLTHLTGHFFGVYDGHGGHKVADYCRDRLHFALAEEIERIKDELCKRNTGEGRQVQWDKVFTSCFLTVDGEIEGKIGRAVVGSSDKVLEAVASETVGSTAVVALVCSSHIVVSNCGDSRAVLFRGKEAMPLSVDHKPDREDEYARIENAGGKVTQWQGARVFGVLAMSRSIGDRYLKPYVIPEPEVTFMPRSREDECLILASDGLWDVMNNQEVCEIARRRILMWHKKNGAPPLAERGKGIDPACQAAADYLSMLALQKGSKDNISIIVIDLKAQRKFKTRT"
4,x,"I383S: HAB1 mutant (protein, UniProt Q9CAJ0 23-511, looked up, variant I383S) Protein phosphatase 2C 16: SPVEITQLKNVTDAADLLSDSENQSFCNGGTECTMEDVSELEEVGEQDLLKTLSDTRSGSSNVFDEDDVLSVVEDNSAVISEGLLVVDAGSELSLSNTAMEIDNGRVLATAIIVGESSIEQVPTAEVLIAGVNQDTNTSEVVIRLPDENSNHLVKGRSVYELDCIPLWGTVSIQGNRSEMEDAFAVSPHFLKLPIKMLMGDHEGMSPSLTHLTGHFFGVYDGHGGHKVADYCRDRLHFALAEEIERIKDELCKRNTGEGRQVQWDKVFTSCFLTVDGEIEGKIGRAVVGSSDKVLEAVASETVGSTAVVALVCSSHIVVSNCGDSRAVLFRGKEAMPLSVDHKPDREDEYARIENAGGKVSQWQGARVFGVLAMSRSIGDRYLKPYVIPEPEVTFMPRSREDECLILASDGLWDVMNNQEVCEIARRRILMWHKKNGAPPLAERGKGIDPACQAAADYLSMLALQKGSKDNISIIVIDLKAQRKFKTRT"
5,x,"I383R: HAB1 mutant (protein, UniProt Q9CAJ0 23-511, looked up, variant I383R) Protein phosphatase 2C 16: SPVEITQLKNVTDAADLLSDSENQSFCNGGTECTMEDVSELEEVGEQDLLKTLSDTRSGSSNVFDEDDVLSVVEDNSAVISEGLLVVDAGSELSLSNTAMEIDNGRVLATAIIVGESSIEQVPTAEVLIAGVNQDTNTSEVVIRLPDENSNHLVKGRSVYELDCIPLWGTVSIQGNRSEMEDAFAVSPHFLKLPIKMLMGDHEGMSPSLTHLTGHFFGVYDGHGGHKVADYCRDRLHFALAEEIERIKDELCKRNTGEGRQVQWDKVFTSCFLTVDGEIEGKIGRAVVGSSDKVLEAVASETVGSTAVVALVCSSHIVVSNCGDSRAVLFRGKEAMPLSVDHKPDREDEYARIENAGGKVRQWQGARVFGVLAMSRSIGDRYLKPYVIPEPEVTFMPRSREDECLILASDGLWDVMNNQEVCEIARRRILMWHKKNGAPPLAERGKGIDPACQAAADYLSMLALQKGSKDNISIIVIDLKAQRKFKTRT"
